Measured values as given in US20110293610A1 (published 2011).
Changes are numbered by the printed parent chain.

B1: I021B05 (scFv)
scFv: QVQQSGADVKKPGGSLRLSCAASGFTFSSYSMNWVRQAPGKGLEWVSSISSSSSYIYYADSVKGRFTISRDNAKNSLYLQMNSLRAEDTAVYYCAREGGNYDILTGYYIGNGAFDIWGRGTMVTVSSGGGGSGGGGSGGGGSQSVLTQPASVSGSPGQSITISCTGTSSDVGGYNYVSWYQQHPGKAPKLMIYEGSKRPSGVSNRFSGSKSGNTASLTISGLQAEDEADYYCSSYTTRSTRVFGGGTKLTVLG
B2: I008B01 (scFv)
scFv: QVQLVQSGAEVMKPGASVKVSCKASGYNFNNYAMQWVRQAPGQRLEWMGWIVPGNGKTKYSQKFQDRVTIARDTSASTVYMELSSLTSEDTAMYYCARATYDPLTGYSFDGFDIWGQGTTVTVSSGGGGSGGGGSGGGGSQSVLTQPASVSGSPGQSITISCTGTSSDVGGYNYVSWYQQHPGKAPKLMIYEGSKRPSGVSNRFSGSKSGNTASLTISGLQAEDEADYYCSSYTTRSTRVFGGGTKLTVLG
B3: I017D10 (scFv)
scFv: RVQLVQSGAEVKKPGASVKVSCKASGYTFTSDHISWVRQAPGQGLEWMGWISPHHGKTNYAQKLQGRVTMTTDTSTSTAYMELRSLRSDDTAVYYCARVQMDSEYYDLLTGINVGPYYFDYWGKGTLVTVSSGGGGSGGGGSGGGGSSELTQDPAVSVALGQTVRITCQGDSLRSYYASWYQQKPGQAPVLVIYGKNNRPSGIPDRFSGSSSGNTASLTITGAQAEDEADYYCNSRDSSGNHVVFGGGTKLTVLG
B4: I050A12 (scFv)
scFv: EVQLVQSGAEVKKPGSSVKVSCKASGDTFSHYAINWVRQAPGQGLEWMGGIIPTFNAVKYAQKFQGRATITADGSTSTAYMELNSLRSEDTAVYYCATAPYDLLTHYFHYFDYWGQGTMVTVSSGGGGSGGGGSGGGGSALSSELTQDPAVSVTLGQTVRITCQGDSLRSYYPSWYQQKPGQAPVLVIYPKNIRPSGIPDRFSGSSSGNTASLTITGAQAEDEADYYCNSRASSGNHYVFATGTKLTVLG
B5: I016E05 (scFv)
scFv: QVQLQQSGAEVKKPGASVKVSCKASGYTFTKYTMHWVRQAPGQGPEWMGWINGGSGDTKYSRKFQGRVTITKDTSASAAYMELSSLGSEDTALYYCARATYDPLTGYSFDGFDIWGKGTMVTVSSGGGGSGGGGSGGGGSQSALTQPASVSGSPGQSITISCTGTSSDVGGYNYVSWYQQHPGKAPKLMIYEGSKRPSGVSNRFSGSKSGNTASLTISGLQAEDEADYYCSSYTTRSTRVFGGGTKLTVLG
B6: I018H08 (scFv)
scFv: B5 scFv with K19N, K117Q, A143V, V249I
notes: also called 1018H08
B7: I018H09 (scFv)
scFv: B5 scFv with A79T, A143V
B8: I031F09 (scFv)
scFv: QVQLVQSGAEVKKPGASVKVSCTVSGDSFSRHGISWVRQAPGQGLEWMGWISVYNGDTKYAQKVQGRVTMTTDTSTNTVYMELRRLRSDDTAVYYCARDEGRDLLTGYYWPNFFDSWGRGTLVTVSSGGGGSGGGGSGGGGSALSYVLTQPPSASGTPGQRVTISCSGSRPNIGGNTVNWYQQLPGAAPKLLIYSNSQRPSGVPDRFSGSKYGTSASLAISGLQSDDEADYYCAAWDDSLTGPVFGGGTKLTVLG
B9: I031G11 (scFv)
scFv: B8 scFv with A154V, R161K
B10: I037E07 (scFv)
scFv: QVQLVQSGAEVKKPGASVKVSCKASGYTFTNYGITWVRQAPGQGLEWMGWISAYNGNRNYAQKLQGRVTMTTDTSTSTAYMELRSLRSDDTAVYYCVRDGIDILLVPAALMDVWGRGTMVTVSSGGGGSGGGGSGGGGSQSVLTQPASVSGSPGQSITISCTGTSSDVGGYNYVSWYQQHPGKAPKLMIYEGSKRPSGVSNRFSGSKSGNTASLTISGLQAEDEADYYCSSYTTRSTRVFGGGTKLTVLG
B11: I037E12 (scFv)
scFv: B10 scFv with Q1E, R116K, M119L, S193N
B12: I016H07 (scFv)
scFv: GVQLVQSGAEVKKPGASVKVSCKASGYTFTHYAINWLRQAPGQRPEWMGTINTGNGNTKYSQNFQGRLTITRDTSASTVNMELSSLRSEDTAVYYCAGGYHDPLTSYNYNWFDPWGQGTMVTVSSGGGGSGGGGSGGGGSSELTQDPAVSVALGQTVRITCQGDSLRSYYTNWFQQKPGQAPLLVVYAKNKRPSGIPDRFSGSSSGNTASLTITGAQAEDEADYYCHSRDSSGNHVLFGGGTKLTVLG
B13: I008A09 (scFv)
scFv: GVQLVQSGGGVVQPGGSLRLSCAASGFTFSSYGMHWVRQAPGKGLEWVAVISYDGSNKYYADSVKGRFTISRDNSKNTLYLQMNSLRAEDTAVYYCARDREAYYDILTGYYLYYYYMDVWGRGTTVTVSSGGGGSGGGGSGGGGSQSVLTQPASVSGSPGQSITISCTGTSSDVGGYNYVSWYQQHPGKAPKLMIYEGSKRPSGVSNRFSGSKSGNTASLTISGLQAEDEADYYCSSYTTGSTRVFGGGTKLTVLG
B14: I026E03 (scFv)
scFv: EVQLVQSGGEVKRPGASVKVSCKASGYTFSRYGISWVRQAPGQGLEWMGWISAYNGKTSFAEKFQGRVTLTTDTSTTTVDMELRNLRSDDTAVYYCARTDYDILTGYPMGYFDPWGKGTLVTVSSGGGGSGGGGSGGGGSALSSELTQDPAVSVALGQTVKITCQGDSLRSFYAAWYQQKPGQAPILVISGKNNRPSGIPDRFSGSSSGNTASLTITGAQAEDEADYYCNSRDTSGNHYVFGAGTKLTVLG
B15: I007B03 (scFv)
scFv: GVQLQQSGAEVKKPGSSVKVSCKASGGTFNTSGITWVRQAPGQGLEWMGWMNPNTGDTAYAQEFQGRVIMTRDTSISTAYMELSSLRSEDTAVYYCARDGSYDILTGYYIDNYMDVWGQGTMVTVSSGGGGSGGGGSGGGGSQSVLTQPASVSGSPGQSITISCTGTSSDVGGYNYVSWYQQHPGKAPKLMIYEGSKRPSGVSNRFSGSKSGNTASLTISGLQAEDEADYYCSSYTTRSTRVFGGGTKLTVLG
B16: I001C09 (scFv)
scFv: GVQLVQSGPEVKKPGASVKVSCTASGYTFTSYGVSWVRQAPGQGLEWIGWISAHNGQTKYAEKFQGRVTMTRNTSISTAYMELSSLRSEDTAVYYCARDGSYDILTGYYIDNYMDVWGKGTMVTVSSGGGGSGGGGSGGGGSSELTQDPAVSVALGQTVRITCQGDSLRSYYTNWFQQKPGQAPLLVVYAKNKRPSGIPDRFSGSSSGNTASLTITGAQAEDEADYYCHSRDSSGNHVLFGGGTKLTVLG
B17: I018C10 (scFv)
scFv: B16 scFv with A92V
B18: I018D07 (scFv)
scFv: B16 scFv with K19I

Each binder was assayed against T1, biotinylated B Lymphocyte Stimulator, soluble form (human, UniProt Q9Y275 134-285, biotinylated with NHS-biotin, molar ratio 20:1 biotin:protein) (assay: phage scFv, receptor binding inhibition on IM9 cells).
T1 construct: also called bio-B Lymphocyte Stimulator; free B Lymphocyte Stimulator
Method: Fifty-five μl of each appropriate phage supernatant was added to each well and the final volume in each well was 65 μl. Plates were then incubated at room temperature for 30 minutes.
Plates were washed three times in PBST and three times in PBS, tapped dry and 50 μl of streptavidin-Delfia (Wallac) was added to each well at 1:1000 dilution in the Manufacturer's assay buffer. The plates were then incubated at room temperature for 1 hour and washed six times in Delfia wash solution (Wallac). After tapping the plates dry, 100 μl per well of Delfia enhancement solution (Wallac) was added. The plates were gently tapped to encourage micelle formation, incubated at room temperature for 10 minutes, and fluorescence read on a Wallac 1420 workstation at […].

Binding result, binds:
B1, B2, B3, B4, B5, B6, B7, B8, B9, B10, B11, B12, B13, B14, B15, B16, B17, B18
